Molecular target: MS2 coat protein, dlFG mutant (Escherichia phage MS2, UniProt P03612, del68-81insG)
Assay: 4 mM Mg2+; no ligand; RNA-MaP array; 100 mM Tris-HCl pH 7.5, 80 mM KCl, 4 mM MgCl2, 0.1 mg/mL BSA, 1 mM DTT, 0.01 mg/mL yeast tRNA, 0.01% Tween-20; protein 1.5 nM to 3 uM; 37 C (Table S3)
Settings: chain copies: 2; label: tethered by stalled RNA polymerase

Binder	Kd [nM]
Eterna 7672999 (Same State - Tryptophan B) (ssRNA) RNA: UGGUACAUGGCGGCCGCCACUUCACGUAAAAUAAAAACUUGAGGAUCACCCAAGUAAUAAGUUGGGAGGACCGGGUCAUGUACCU	19
Eterna 12517 (Exclusion 2) (ssRNA) RNA: AAUGGCUGAGGAUAUACACUCACGUCUAAAAGGUUCAAAUGACAUGAGGAUCACCCAUGUAGAAGGCAGCCCGA	103
Eterna 12408 (Exclusion 4) (ssRNA) RNA: CAUUUGUGAGGAUAUCAGGUGUGCUAGCGUACUGGUACAUCUGAGAAGGCACAUGAGGAUCACCCAUGUUUCUU	15.8
Eterna 6393566 (Inverted Small Loop Exclusion NG 3) (ssRNA) RNA: AGCACGAAAGUGCAACGAUGUACGAGAAGGACAUGAGGAUCACCCAUGUUGCUGUAACUGCUUAUGUAGGAUAUCGUACAUCGA	5.14
Eterna 7739921 (Exclusion - Arginine B) (ssRNA) RNA: UGAUAGGACAGAAGGAGCGGCAGUGAUGUUGCCAAAAGGGUAAGGUGUCAAAAGACACCCUGCCAGGUAGGUCGCUGUCCUAUCU	> 3000
Eterna 7754813 (Same State - Tryptophan B) (ssRNA) RNA: UAGUAGCUCUCGGCCGCCACUCCUCAGUGAUGUUGAGAUAUUAAGAGCCAAUUGGCUCAUAUAAAGAGGACCGGGAGAGCUACAU	> 3000
Eterna 7712196 (Same State - FMN B) (ssRNA) RNA: AGAGUUAUGCGAGGAUAUGCAGUUAGUACUCAAAGAGUACUAACGCAGAGUGAUGUUCUGUGAAACGCAGAAGGUGCAUAACUCA	> 3000
Eterna 7682758 (Exclusion - Arginine A) (ssRNA) RNA: AAUUUACAUUAAUUAUUUAAAGGUUCAGAAGGAGCGUGAAUUAACACAGGUAGGUCGCUGAGCGAGUGAUGUUCGCUAUAUACUA	> 3000
Eterna 12520 (Exclusion 2) (ssRNA) RNA: AAACAGGGAGGAUAUACAUAGAUCCUCUAACCUAAUUGGUCACAUGAGGAUCACCCAUGUAGAAGGCCCUUAGG	11.8
Eterna 7723566 (Exclusion - Tryptophan A) (ssRNA) RNA: AUGUCGUUAUAGUGAGUGAUGUUCACUGUGCGAGGACCGGUACGGCCGCCACUCGAGAGUGGUGGACACUGAGUCACUCUGACAC	> 3000
Eterna 6453430 (Inverted Small Loop Exclusion NG 3) (ssRNA) RNA: AGGUAAGACUUAAUUGUGCUGGUGAGAAGGCAAAUGGUUGUGAUUAACAUGAGGAUCACCCAUGUUGAGGAUAUCAUCGGUAUC	500
Eterna 7670643 (Exclusion - Theophylline B) (ssRNA) RNA: UGACAUUGCUCAGAUACCAGACGUGAGCAUCAGCCAUGUGCCAACAAGUACAAAAUAAAUGUCCCUUGGCAGCUGAGCAAUGUCU	16.6
Eterna 6102128 (Same State NG 3) (ssRNA) RNA: AAAACAUGAGGAUCACCCAUGUAAAUAUCGGUUAAUUGUUGUGAGGAUAUACUAAAUUUUAAGAAGUAGAAGGCACUGGGUACA	24.4
Eterna 1268 (Exclusion - Tryptophan B) (ssRNA) RNA: AAGCCAUACUCGGCCGCCACUUACUUCGUUGCAGUGAUGUUGCACACGAAUCCGUCAUAGCAAAUAAGGACCGGGAGAUAUACCG	> 3000
Eterna 1541 (Same State - FMN A) (ssRNA) RNA: AAGUGGGAACGGCCCAAUAAAGUGUUUGUCAAGGAUAUUAUUCACAUAAGAAGGUGACAGACCACCUCCGGAGUGAUGUUUUGGA	> 3000
Eterna 7734297 (Exclusion - Theophylline B) (ssRNA) RNA: GGCCGAUGGUGCGAUACCAGCUUGAGUGUACUGGCCAGGUACAUGAGGAUCACCCAUGUAAGCCCUUGGCAGCGCGUCAGAGGCC	10.6
Eterna 14907 (Exclusion 2) (ssRNA) RNA: GUGUAGUUAGGAUAUGCUGGAAUCUAGCGAAGCUAGGUUCCACAUGAGGAUCACCCAUGUAGAAGGGACUACAC	253
Eterna 15907 (Sensor v3, turn-off variant 2) (ssRNA) RNA: AGUAACCGUCACGAAAGUGAUGGUUACGCAAGUAAAUGUACAUGAGGAUCACCCAUGUCCUCAUUUGCUCGUCUUAU	204
Eterna 7722469 (Exclusion - FMN A) (ssRNA) RNA: AUUUAGACGAGUGAUGUUCGUGUUAUUACAGAGGAUAUGCGUAAUUGCAGAAGGCUGUAUUUAUAUAUGUUAUGUAGUUUUAAAA	> 3000
Eterna 7687729 (Same State - FMN B) (ssRNA) RNA: AUUUUUAACUGAGGAUAUCGAAUUUAUGUAGUGAUGUUACUUUAAAUUAAAAUUUUAAUUUCUUAACGAGAAGGCAGAAUAAUUA	> 3000
Eterna 6451279 (Small Loop Same State NG 3) (ssRNA) RNA: ACAUGAGGAUCACCCAUGUAAAGCGAGGAUAUUUCACUGCACAUGAGGUUCGCCCAUGUUCUGCGGAAGAAGGUGCAAAUAAUU	82.6

Binder	Kd [nM]
Eterna 7643338 (Exclusion - Arginine B) (ssRNA) RNA: UUAUAUUAUCGAAGGAGCGUCACAUGAGGAUCACCCAUGUACAUGAGGAUCACCCAUGUGUGGCAGGUAGGUCGCGAUAUAUAAC	226
Eterna 6398784 (Exclusion NG 1) (ssRNA) RNA: CCUGCACCUCAAGGAUAUCCAGUCGAAACGACUGGAGAAGGUGAGGAUCACCCACCUAGCCUGACGAAAGUCAGGCAUGCAGGA	14.4
Eterna 7734632 (Exclusion - FMN B) (ssRNA) RNA: CAUACGCAUGGAGGAUAUGAGAUUUUUCAUAUUAUUUUUUAUUCUCAGUGAUGUUGGGAUUUAUAAUCAGAAGGCCAUGUGUAUG	> 3000
Eterna 5942428 (Same State NG 3) (ssRNA) RNA: GUGGUCAGACAUGAGGAUCACCCAUGUGGAAUAAAUAACACACAGGAUAUCAAAUAUAAAAUAUAUGAGAAGGGUGGAUUGGUG	387
Eterna 7682723 (Same State - Arginine A) (ssRNA) RNA: AAAUUCUUUUUUUUAUUUAACUUUUCAGAAGGAGCGUGGUAGUUCACAGGUAGGUCGCUGAAUUUUGGACUAGUGAUGUUAGUUA	> 3000
AAAGCAUGACGCGCUUUCAAGCGUGGCGAGUAUAAA (ssRNA) [Eterna 2 (No-binding control)]	> 3000
Eterna 6108976 (Same State NG 2) (ssRNA) RNA: GUAGCAUACCGAGGAUAUUCAUAUAAUAAAUAAACAUGAGGACCACCCAUGUGGCGAAAGCCUUGGGAGAAGGCGGAAUGCUAC	1050
Eterna 6148811 (Same State NG 2) (ssRNA) RNA: UGAAUCAAUACAGGAUAUGGUGACGCACAUGAGGAUCACCCAUGUCCGCAGCGUGCUCAGCACGCCCAGAAGGGUAUUGAUCCG	816
Eterna 7714851 (Same State - Theophylline B) (ssRNA) RNA: AGAACUGUCUGAGAUACCAGCCAGGAAGUGAUGUUUCCAGCUCCACGAAAGUGGAGCCAUGGCCCUUGGCAGCUCAGACAGUUCA	> 3000
Eterna 7683541 (Same State - FMN B) (ssRNA) RNA: UAUUAAUUGUCAGGAUAUCGUAAACGAGUGAUGUUCGUAUAUCGACGAUAGUCGAUUCUAUCUAAACGAGAAGGGACAUUAUUUA	> 3000
UUUUCAGAACUUAUUU (ssRNA) [Eterna 3 (ShortRNAControl)]	> 3000
Eterna 7681870 (Exclusion - Theophylline B) (ssRNA) RNA: CCUAUCUCAUACGAUACCAGUCAACGAGUGAUGUUCGAAUAAAUAAAUUUGCCAAAUAAUGACCCUUGGCAGCGUAUGGGAUAGG	> 3000
Eterna 6423537 (Small Loop Exclusion NG 1) (ssRNA) RNA: GAGUAGAUCCGAGGAUAUACAAUCCGGAAACGGUACAUGAGGAUCACCCAUGUAGAAGGCGGAUCUACAGGUACUAAAGUACCU	5.63
Eterna 7687231 (Exclusion - Arginine A) (ssRNA) RNA: AAUGUACAAGUGAUGUUUGUACUUUCCGAAGGAGCGUCUAAUAAGACAGGUAGGUCGCGGAUUCUCUAAAUUAUCAGGUCAUUAA	> 3000
Eterna 7682834 (Same State - Tryptophan A) (ssRNA) RNA: UGUCAUGGAAACAUGAACGUUGAUGUUCGACGAGGACCGGUACGGCCGCCACUCGAGUAAUAGUCAGUGAUGUUGACUUGUUUAA	> 3000
Eterna 7685253 (Same State - Tryptophan B) (ssRNA) RNA: AGACGCCAGUCGGCCGCCACUCACAGCAGUGAUGUUGCUGAAAAUCUAGAAGAGUGAUGUUCUUAGAGGACCGGGACUCCAGUCG	> 3000
Eterna 7684757 (Exclusion - Tryptophan B) (ssRNA) RNA: AAUAAAAUCACGGCCGCCACUGAUUACCAUAUUAGGAGUGAUGUUCCUAUGACUAUAUAAUUUAACAGGACCGGGUGAAUAUUUA	> 3000
Eterna 7685224 (Exclusion - Theophylline B) (ssRNA) RNA: AAUUUAUUAACUGAUACCAGACUUAAUUAAUUGUAAAUUACUAGUGAUGUUAGUGAUUCUGUCCCUUGGCAGCAGUAUUUAUUAA	> 3000
Eterna 7709711 (Same State - Tryptophan B) (ssRNA) RNA: UAUAUAGUGACGGCCGCCACUAUUGUGAUGUAGUUGUUAGAGUGAUGUUUUGUUGUUUGAUUUUGUAGGACCGGGUUAUAUGUUA	> 3000
Eterna 6147986 (Exclusion NG 1) (ssRNA) RNA: GCAAUGUGAUAAGGAUAUCCAAUGGCAUCCCUAGGAGAAGGUAUCACAUGAGGAUCACCCAUGUGAAGGACGGGUUAUCGCAAA	54.1
Eterna 12456 (Exclusion 4) (ssRNA) RNA: GUAAAGUGAGGAUAUGGUAAAUUAAUUAUUAAUUAAUUAAUCCAGAAGGCACAUGAGGAUCACCCAUGUAAUUG	24.8

Source: PMC9170038, “Crowdsourced RNA design discovers diverse, reversible, efficient, self-contained molecular switches”
